# Tested on: MS2 coat protein
# Assay: apparent KD of MS2 coat protein; designed switch direction (-1 OFF switch, 1 ON switch): -1; higher = weaker reporter binding
# How it was run: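 Designed RNA switches were transcribed on Illumina chips by stalled E. coli RNA polymerase and titrated with SNAP-549-labelled MS2 coat protein from 0.7 or 1.5 nM, doubling to 3 µM. Step length ran from 0.8–1.5 h at the lowest concentration to 10–20 min at the highest. The apparent KD is the median over clusters for each design, from curve-fitted normalised cluster fluorescence.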
# [1] = Eterna round: R95, input ligand: microRNA oligo, concentration not stated
# [2] = input ligand: microRNA oligo, concentration not stated
# [3] = Eterna round: R95, input ligand: FMN 200 uM
# [4] = Eterna round: R95, input ligand: none
Sequence,apparent KD of MS2 coat protein [1],apparent KD of MS2 coat protein (input ligand: FMN 200 uM),apparent KD of MS2 coat protein (input ligand: none),apparent KD of MS2 coat protein [2],apparent KD of MS2 coat protein [3],apparent KD of MS2 coat protein [4]
ACAGGUUAAGGAUAUACAUGAGGAUCACCCAUGUCGAGUAUCUUGUCAUGCCGCCCAUGUAGAAGGUAACAUGG [Geale] (puzzle: Exclusion 3),14.3 nM,–,–,–,–,–
"AAUUUUUAUGUAAGGAUAUAAGUUUGGAAACGGGCUUAGAAGGUACAUGAGGAUCACCCAUGUAUAAUGUGCGU [-20.6, -20.4 kcal, 32% A] (Eterna round: R97, puzzle: Brourd's mod of Exclusion 4)",–,52 nM,23.2 nM,–,–,–
"AAACGGGUGUCCUCGUUUUCAACAUGAGGAUCACCCAUGUUCGAGGAUAUCCGAUAAGCUCUUCAGGAGAAGGCGAACAUAAAA [Eninenat] (Eterna round: R96, puzzle: Exclusion NG 3)",–,14.7 nM,18.4 nM,32.1 nM,–,–
AAAGUUCGAGGAUAUCUACUUAGCUACAUGAGGAUCACCCAUGUUAUCCUCCCGCUGGGAAGAGAAGGCGGUUAAA [Xeonceso] (puzzle: Exclusion 5),41.7 nM,–,–,–,186 nM,41.7 nM
"UUGAUGUCAUCAGGAUAUAGUAUUUAAGACAUAUCUUCUUUCUUACAUGAGGAUCACCCAUGUCGCUAGAAGGGAUGAAUGAUU [JR_ExcNG2_Sub086] (Eterna round: R96, puzzle: Exclusion NG 2)",–,–,–,13.4 nM,–,–
"CCAUGGGUGCGAGGAUAUAGCCCAUGGGAAGAGCUAGAAGGCGCAGACAUGAGGAUCACCCAUGUGUUCAUGAGGAGGUGGACA (Eterna round: R96, puzzle: Exclusion NG 1)",–,124 nM,84.8 nM,54.8 nM,–,–
GGUGGACAUGAGGAUCACCCAUGUGAGGAUAUCGGCCGGCUAGUGGCGGCUGGCUUCACGAGAAGGCGCAUAGU [Exclusion 1 V78] (puzzle: Exclusion 1),65.4 nM,–,–,–,–,–
"ACAUUUUAUCCAUGAUAUCACAUGAGGAUCACCCAUGUUAAGGCGAUUUUGAUUUGUAAGCUUUGUGCUCGACUUAU [JR_STOV1_Sub054] (Eterna round: R97, puzzle: Sensor, turn-off variant 1)",–,35.6 nM,42.1 nM,–,–,–
"CUCUCACAUGAGGAUCACCCAUGUUAGGAUAUUCCGUAGCGACUUACAAGAGGAGCAGGAAGAAGGAGCCUGGC [Eternabot (L1) Solution 40] (Eterna round: R97, puzzle: Exclusion 1)",–,343 nM,435 nM,–,–,–
"UCUAACCAUGUAGGAUAUGCGUGGCUAAGCUAUGCAGAAGGACAUGAGGAUCACCCAUGUGCCUCCGUCUGCGUACAGUCGGCU [EXclNG1-LROPPY01] (Eterna round: R96, puzzle: Exclusion NG 1)",–,15.5 nM,18.5 nM,11.2 nM,–,–
"GUUUUCAGACGGAGAUCCUACAUGAGGAUCACCCAUGUCUCUCUAGCUAAUUGCUCGUCUUAUUCUCCUCUGUUCUC [Elimod 38 - Jieux - Sensor, turn-off variant 1] (Eterna round: R97, puzzle: Sensor, turn-off variant 1)",–,40 nM,47.5 nM,–,–,–
"GCGCACCUACCAAAAGGUAGGCCGACAUGAGGAUCACCCAUGUAGGAUAUCGAUUGCUUUGCAGUCGAGAAGGACGUGAUGCGC [JL ENG3 3.80 Mod 18] (Eterna round: R96, puzzle: Exclusion NG 3)",–,20.1 nM,19.4 nM,14.7 nM,–,–
CCCUCACAUGAGGAUCACCCAUGUCAGGAUAUCUAGUCAGACAGUGUAGCACUGCUGAAGAGAAGGGACGUAAA [Isinzare] (puzzle: Exclusion 1),15.9 nM,–,–,–,–,–
"UUGAAUUAGCAGGAUAUGGGAGUCGAUAGACACCCAGAAGGGCUAACAUGAGGAUCACCCAUGUGUCCUAUCAA [Mod of Eli 22 - Jieux - Exclusion 6] (Eterna round: R97, puzzle: Exclusion 6)",–,204 nM,33.9 nM,–,–,–
"UUAAAUCAUGUAGGAUAUGCGUGGCGAAGCUAUGCAGAAGGACAUGAGGAUCACCCAUGUUCUAGCGUCUGCGUACAGAUGCGG [JL JSci mod] (Eterna round: R96, puzzle: Exclusion NG 1)",–,334 nM,29.8 nM,22 nM,–,–
"GAGCAGCCGAUAGGAUAUUCCGAGCUAAAGAGCAGUAGGACAUGAGGAUCACCCAUGUGUGCAUGGAAGAAGGGUCACUUCCAG [Eternabot solution 23] (Eterna round: R96, puzzle: Exclusion NG 2)",–,25.8 nM,30.7 nM,24.2 nM,–,–
"AUAAAGCAAGGAUAUACAUGAGGAUCACCCAUGUAUGAAAGUUGGCCGCGGUUUAGAUGUAGAAGGUGCAAGGG [EX3 B.8] (Eterna round: R97, puzzle: Exclusion 3)",–,27.6 nM,28.1 nM,–,–,–

Sequence,apparent KD of MS2 coat protein [1],apparent KD of MS2 coat protein (input ligand: FMN 200 uM),apparent KD of MS2 coat protein (input ligand: none),apparent KD of MS2 coat protein [2],apparent KD of MS2 coat protein [3],apparent KD of MS2 coat protein [4]
"CUCGUGCAGCAAAGCUGUACGAGUACAUGAGGAUCACCCAUGUAGGAUAUGGUACGCAAAGCGUGCUAGAAGGAUAUGUGAAAG [Mat - Exclusion NG 3 - Mod of JL - D89] (Eterna round: R96, puzzle: Exclusion NG 3)",–,44.2 nM,49.9 nM,31.4 nM,–,–
"UUCUACAAGCUGAGAUCCUACAUGAGGAUCACCCAUGUGGUCCGGAACAUUCUGUCACCGGAUCUUGCUCGUCUUGU [salish99_S_TOV1_R5_104] (Eterna round: R97, puzzle: Sensor, turn-off variant 1)",–,41.9 nM,48.4 nM,–,–,–
CGGAUGUGAGGAUAUACAUGAGGAUCACCCAUGUGAGCCAGCUAGCUGACUGGCUCGUGUAGAAGGCACGUCUG [JL-ex3-2.16 Brourd mod] (puzzle: Exclusion 3),14.2 nM,–,–,–,–,–
"ACAAGCUUUUUCGUGGGUGACAUGAGGAUCACCCAUGUUUGCCGCGUCUUGUCGUCGUGGACCUGUGGUCCAUGACG [Small mod of -44.6, -64.9 by Sellena] (Eterna round: R97, puzzle: Sensor, turn-off variant 1)",–,137 nM,153 nM,–,–,–
"GGUCGGGCAAAGGAUGCCCACAUGAGGAUCACCCAUGUACAAGACUUUAAGGUGCGUAAGCGCAUACGGCUCGUUAA [Eternabot (L1) Solution 26] (Eterna round: R97, puzzle: Sensor, turn-off variant 1)",–,15.9 nM,16.5 nM,–,–,–
"UACGUGUCAGGAUAUGCGUUGGUACAGAAGUAUGGCCAACGGCAGAAGGGACAUGAGGAUCACCCAUGUCGUCG [Eternabot (L1) Solution 60] (Eterna round: R97, puzzle: Exclusion 4)",–,139 nM,26.8 nM,–,–,–
"GGCCCUAAGGUCAGAUCCACAAGCUUUUUGCUCGUUUUAACAUGAGGAUCACCCAUGUCUAGUGGAUCUGAUCCUCU [Sensor v3, turn-off variant 2 (MOD of Indiso v.4)] (puzzle: Sensor v3, turn-off variant 2)",15.4 nM,–,–,–,25.2 nM,21.6 nM
"AAUUAAACAAGCAGAUCCCACAUGAGGAUCACCCAUGUGCUCGUCUUAUAAGGUACUGUGACGAGAGUCACGGUACC [Mat - Sensor, turn-off var - Eli Mod - D64] (Eterna round: R97, puzzle: Sensor, turn-off variant 1)",–,66.4 nM,47.4 nM,–,–,–
GCCUCACAUGAGGAUCACCCAUGUCAGGAUAUAGGAGACGGUAGCUUUGCUGCCUUCGCUAGAAGGGACUGGCU (puzzle: Exclusion 1),29.7 nM,–,–,–,–,–
"UUUUUAUAUGAAGGAUAUACUUAACAUGAGGAUCACCCAUGUGGUGUUGUGAGUGAGUGAGUUUAGUAGAAGGUCAAAUAUUUU [JMF's solution 7] (Eterna round: R96, puzzle: Exclusion NG 2)",–,583 nM,270 nM,194 nM,–,–
UCGUUUUUUGAGGAUAUGCGACGUUUUUUCGUCGUAGAAGGCGAUACAUGAGGAUCACCCAUGUUUAUGGGCAU [LRO-Ex6-15] (puzzle: Exclusion 6),148 nM,–,–,–,–,–
"CAGUACUGAGGAUAUACAUGAGGAUCACCCAUGUUCCAAGGCUAGGAAACUAGCAAAAGUAGAAGGCAGUACUG [828 mod 2 m3] (Eterna round: R97, puzzle: Exclusion 3)",–,472 nM,24.5 nM,–,–,–
"AGAGUGCUGCGAGGAUAUACAUGAGGAUCACCCAUGUAAUCGUCUGAGGCAAAGCCUCAGACGAAGUAGAAGGCGCAGUACUCA [Mat - Exclusion NG 2 - Mod of JL - D27] (Eterna round: R96, puzzle: Exclusion NG 2)",–,20 nM,17.9 nM,12.5 nM,–,–
"UUAACAUGCUGGUGAUCAUACAUGAGGAUCACCCAUGUAACAAGCUUUUUGUUCGUCUUAAUUUAAUUGAUUACUAG [Stov1/8-B1] (Eterna round: R97, puzzle: Sensor, turn-off variant 1)",–,188 nM,248 nM,–,–,–
"AGCCUAGCAGGAUAUGCCCGGGAUAACAUGAGGAUCACCCAUGUGACCGAUUGAUGUCCUGCAGAAGGGCUAGGGA [JL-EX5-4.00 ViennaUCT mod] (Eterna round: R97, puzzle: Exclusion 5)",–,20.9 nM,18.5 nM,–,–,–
"ACAUGAGGAUCACCCAUGUAAACAUAAUGGCUCAUGUAGAGUCAGGAUAUGCGUGGCGAACUCGCGCAGAAGGGACAAGACUGG [Deportation 23 - Jieux - Exclusion NG 3] (Eterna round: R96, puzzle: Exclusion NG 3)",–,26.7 nM,26.4 nM,20.6 nM,–,–

# From the supplement of paper PMC9170038
